We go through two molecules from publication PMC3228729, “Localization of ASV Integrase-DNA Contacts by Site-Directed Crosslinking and their Structural Analysis”.

For the series, the target named is T1, ASV integrase WT (avian sarcoma virus, UniProt P03354 1281-1567).
T1 sequence: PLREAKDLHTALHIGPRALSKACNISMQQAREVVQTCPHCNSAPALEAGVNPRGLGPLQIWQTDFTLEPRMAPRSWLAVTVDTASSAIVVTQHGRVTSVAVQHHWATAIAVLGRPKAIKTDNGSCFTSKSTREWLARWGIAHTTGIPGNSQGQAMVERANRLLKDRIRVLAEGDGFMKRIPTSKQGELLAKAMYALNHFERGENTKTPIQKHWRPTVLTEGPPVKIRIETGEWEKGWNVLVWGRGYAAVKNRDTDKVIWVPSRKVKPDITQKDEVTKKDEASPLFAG
Put plainly: photocrosslinking; DNA-borne diazirine; among highest efficiency; Photocrosslinking: 40 mM HEPES pH 6.5, 150 mM NaCl, 5% glycerol, 0 C, 10 uM IN, 0.05 uM DNA; disulfide: Buffer 1 adjusted to 250-300 mM NaCl, pH 7.5, on ice, +/-10 mM MgCl2. Particulars: protein: recombinant; label: 32P; blunt.

B1: NH2-4.12 linear (dsDNA)
DNA 1: GAGTATTGCATAAGACTACATT
DNA 2: AATGTAGTCTTATGCAATACTC
modifications: 5-aminouridine at position 12 of strand 4 (paper numbering), carrying aryl diazirine
In the case of B1, the binding result is on record as “binds”.

B2: NH2-3.11 linear (dsDNA)
DNA 1: AATGTAGTCTTATGCAATACTC
DNA 2: GAGTATTGCATAAGACTACATT
modifications: 5-aminouridine replacing T at position 11 of strand 3 (paper numbering), carrying aryl diazirine
Turning to B2, the binding result is listed as “binds”.
